Experimental data published in article PMC9482650, “Quantitative fragmentomics allow affinity mapping of interactomes” (Nature Communications, 2022).

Columns and labels:
Assay in all cases: holdup assay
Design in all cases: key: below the threshold = too weak to quantify, mostly under pKd 3.1 to 4
APBA1_1, Q02410 = biological target: T1, APBA1_1, Q02410
T1 sequence (Q02410 651-752, limits assumed, looked up): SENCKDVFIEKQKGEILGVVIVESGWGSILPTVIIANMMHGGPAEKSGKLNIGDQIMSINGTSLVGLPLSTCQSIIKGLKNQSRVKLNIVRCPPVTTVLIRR

APBA1_2, Q02410 = biological target: T2, APBA1_2, Q02410
T2 sequence (Q02410 742-832, limits assumed, looked up): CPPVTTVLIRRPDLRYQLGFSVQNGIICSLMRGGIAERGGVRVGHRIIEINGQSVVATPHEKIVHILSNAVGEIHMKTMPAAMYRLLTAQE

ARHGEF11, O15085 = biological target: T3, ARHGEF11, O15085
T3 sequence (O15085 42-136, limits assumed, looked up): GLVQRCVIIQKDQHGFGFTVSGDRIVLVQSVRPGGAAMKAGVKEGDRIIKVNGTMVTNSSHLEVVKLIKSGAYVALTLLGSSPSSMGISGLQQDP

DLG3_2, Q92796 = biological target: T4, DLG3_2, Q92796
T4 sequence (Q92796 221-321, limits assumed, looked up): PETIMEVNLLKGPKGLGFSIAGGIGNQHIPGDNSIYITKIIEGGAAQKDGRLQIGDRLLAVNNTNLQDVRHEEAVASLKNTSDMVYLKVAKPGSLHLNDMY

DVL3, Q92997 = biological target: T5, DVL3, Q92997
T5 sequence (Q92997 244-331, limits assumed, looked up): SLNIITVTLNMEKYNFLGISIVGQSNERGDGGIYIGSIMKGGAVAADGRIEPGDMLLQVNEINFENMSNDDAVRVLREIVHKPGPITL

FRMPD3, Q5JV73 = biological target: FRMPD3, Q5JV73
FRMPD3, Q5JV73, sequence (Q5JV73 12-100): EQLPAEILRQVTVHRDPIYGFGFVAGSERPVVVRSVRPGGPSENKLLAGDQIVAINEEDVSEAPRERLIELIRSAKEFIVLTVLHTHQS

GRASP, Q7Z6J2 = biological target: GRASP, Q7Z6J2
GRASP, Q7Z6J2, sequence (Q7Z6J2 96-193): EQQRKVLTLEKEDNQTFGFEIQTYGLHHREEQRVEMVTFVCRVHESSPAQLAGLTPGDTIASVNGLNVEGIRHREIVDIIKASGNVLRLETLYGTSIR

GRIP1_3, Q9Y3R0 = biological target: T6, GRIP1_3, Q9Y3R0
T6 sequence (Q9Y3R0 247-346, limits assumed, looked up): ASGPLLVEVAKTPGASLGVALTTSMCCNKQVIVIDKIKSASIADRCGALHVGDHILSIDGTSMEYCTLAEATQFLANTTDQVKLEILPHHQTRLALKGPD

GRIP1_5, Q9Y3R0 = biological target: T7, GRIP1_5, Q9Y3R0
T7 sequence (Q9Y3R0 568-668, limits assumed, looked up): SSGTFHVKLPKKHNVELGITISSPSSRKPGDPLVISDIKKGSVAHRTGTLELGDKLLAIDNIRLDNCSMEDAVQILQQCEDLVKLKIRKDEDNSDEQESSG

GRIP2_4, Q9C0E4 = biological target: GRIP2_4, Q9C0E4
GRIP2_4, Q9C0E4, sequence (Q9C0E4 446-548): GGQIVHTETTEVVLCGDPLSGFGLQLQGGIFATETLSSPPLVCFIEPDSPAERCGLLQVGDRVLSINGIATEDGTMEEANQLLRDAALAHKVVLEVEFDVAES

GRIP2_5, Q9C0E4 = biological target: GRIP2_5, Q9C0E4
GRIP2_5, Q9C0E4, sequence (Q9C0E4 544-642): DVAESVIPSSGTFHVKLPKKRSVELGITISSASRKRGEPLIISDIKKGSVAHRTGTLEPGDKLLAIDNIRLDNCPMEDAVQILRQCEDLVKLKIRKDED

Inadl_4, Q8NI35 = biological target: Inadl_4, Q8NI35
Inadl_4, Q8NI35, sequence (Q8NI35 547-651): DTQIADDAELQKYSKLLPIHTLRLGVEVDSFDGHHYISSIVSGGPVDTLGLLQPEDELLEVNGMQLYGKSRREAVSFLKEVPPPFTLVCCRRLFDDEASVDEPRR

LIN7B, Q9HAP6 = biological target: T8, LIN7B, Q9HAP6
T8 sequence (Q9HAP6 88-185, limits assumed, looked up): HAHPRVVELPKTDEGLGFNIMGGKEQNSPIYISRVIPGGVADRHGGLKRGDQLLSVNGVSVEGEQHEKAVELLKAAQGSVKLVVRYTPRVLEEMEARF

LNX1_1, Q8TBB1 = biological target: LNX1_1, Q8TBB1
LNX1_1, Q8TBB1, sequence (Q8TBB1 261-371): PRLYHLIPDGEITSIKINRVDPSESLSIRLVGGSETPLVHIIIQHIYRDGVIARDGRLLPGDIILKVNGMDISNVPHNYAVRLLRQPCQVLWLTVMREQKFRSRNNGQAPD

LNX1_3, Q8TBB1 = biological target: LNX1_3, Q8TBB1
LNX1_3, Q8TBB1, sequence (Q8TBB1 500-596): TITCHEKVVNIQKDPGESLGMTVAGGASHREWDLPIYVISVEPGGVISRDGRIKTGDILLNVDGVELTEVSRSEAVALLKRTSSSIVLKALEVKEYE

PARD3B_1, Q8TEW8 = biological target: T9, PARD3B_1, Q8TEW8
T9 sequence (Q8TEW8 196-299, limits assumed, looked up): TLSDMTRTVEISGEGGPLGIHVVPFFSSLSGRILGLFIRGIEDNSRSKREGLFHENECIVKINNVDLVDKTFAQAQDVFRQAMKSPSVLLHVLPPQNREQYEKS

PARD3_3, Q8TEW0 = biological target: PARD3_3, Q8TEW0
PARD3_3, Q8TEW0, sequence (Q8TEW0 582-685): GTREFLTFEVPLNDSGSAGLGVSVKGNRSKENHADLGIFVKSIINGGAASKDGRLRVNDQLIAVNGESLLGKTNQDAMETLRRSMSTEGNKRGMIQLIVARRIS

PDZD7_3, Q9H5P4 = biological target: T10, PDZD7_3, Q9H5P4
T10 sequence (Q9H5P4 857-944, limits assumed, looked up): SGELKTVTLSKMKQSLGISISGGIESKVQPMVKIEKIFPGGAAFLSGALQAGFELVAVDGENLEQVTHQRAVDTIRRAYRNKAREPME

PDZRN3_1, Q9UPQ7 = biological target: T11, PDZRN3_1, Q9UPQ7
T11 sequence (Q9UPQ7 244-349, limits assumed, looked up): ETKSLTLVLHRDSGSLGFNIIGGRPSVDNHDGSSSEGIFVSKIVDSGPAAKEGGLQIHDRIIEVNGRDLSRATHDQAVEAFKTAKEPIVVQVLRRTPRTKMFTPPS

RAPGEF6, Q8TEU7 = biological target: T12, RAPGEF6, Q8TEU7
T12 sequence (Q8TEU7 525-625, limits assumed, looked up): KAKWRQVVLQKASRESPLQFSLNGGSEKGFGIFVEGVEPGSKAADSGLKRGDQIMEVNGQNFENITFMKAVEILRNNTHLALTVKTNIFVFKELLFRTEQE

SCRIB_2, Q14160 = biological target: SCRIB_2, Q14160
SCRIB_2, Q14160, sequence (Q14160 857-960): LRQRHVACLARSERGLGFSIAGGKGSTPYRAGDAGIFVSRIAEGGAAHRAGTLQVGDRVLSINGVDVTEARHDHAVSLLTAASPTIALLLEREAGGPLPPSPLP

SNTG2, Q9NY99 = biological target: T13, SNTG2, Q9NY99
T13 sequence (Q9NY99 68-166, limits assumed, looked up): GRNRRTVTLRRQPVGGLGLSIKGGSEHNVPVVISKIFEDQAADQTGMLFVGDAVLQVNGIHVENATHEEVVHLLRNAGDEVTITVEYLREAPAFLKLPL

TX1BP3, O14907 = biological target: T14, TX1BP3, O14907
T14 sequence (O14907 10-122, limits assumed, looked up): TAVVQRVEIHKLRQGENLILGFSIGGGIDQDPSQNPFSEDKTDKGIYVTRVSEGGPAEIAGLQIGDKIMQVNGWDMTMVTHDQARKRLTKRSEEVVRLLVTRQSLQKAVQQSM

[1] = plain residues with an end cap or a label only (N-terminal biotin on a linker: ahx)
[2] = plain residues with an end cap or a label only (N-terminal biotin on a linker: ado-ado, ttds)

B1: PDLIM2, Q96JY6 (peptide)
chain: SAPATLSSRA
pKd (APBA1_1, Q02410; [1]): below the threshold
pKd (APBA1_2, Q02410; [1]): below the threshold
pKd (ARHGEF11, O15085; [1]): below the threshold
pKd (DLG3_2, Q92796; [1]): below the threshold
pKd (DVL3, Q92997; [1]): below the threshold
pKd (FRMPD3, Q5JV73; [1]): below the threshold
pKd (GRASP, Q7Z6J2; [1]): below the threshold
pKd (GRIP1_3, Q9Y3R0; [1]): below the threshold
pKd (GRIP1_5, Q9Y3R0; [1]): below the threshold
pKd (GRIP2_4, Q9C0E4; [1]): below the threshold
pKd (GRIP2_5, Q9C0E4; [1]): below the threshold
pKd (Inadl_4, Q8NI35; [1]): below the threshold
pKd (LIN7B, Q9HAP6; [1]): below the threshold
pKd (LNX1_1, Q8TBB1; [1]): 3.67
pKd (LNX1_3, Q8TBB1; [1]): below the threshold
pKd (PARD3B_1, Q8TEW8; [1]): below the threshold
pKd (PARD3_3, Q8TEW0; [1]): below the threshold
pKd (PDZD7_3, Q9H5P4; [1]): below the threshold
pKd (PDZRN3_1, Q9UPQ7; [1]): below the threshold
pKd (RAPGEF6, Q8TEU7; [1]): below the threshold
pKd (SCRIB_2, Q14160; [1]): below the threshold
pKd (SNTG2, Q9NY99; [1]): below the threshold
pKd (TX1BP3, O14907; [1]): below the threshold

B2: KCNA4, P22459 (peptide)
chain: SNAKAVETDV
pKd (APBA1_1, Q02410; [2]): below the threshold
pKd (APBA1_2, Q02410; [2]): 3.5
pKd (ARHGEF11, O15085; [2]): 3.59
pKd (DLG3_2, Q92796; [2]): 5.23
pKd (DVL3, Q92997; [2]): below the threshold
pKd (FRMPD3, Q5JV73; [2]): below the threshold
pKd (GRASP, Q7Z6J2; [2]): below the threshold
pKd (GRIP1_3, Q9Y3R0; [2]): below the threshold
pKd (GRIP1_5, Q9Y3R0; [2]): below the threshold
pKd (GRIP2_4, Q9C0E4; [2]): below the threshold
pKd (GRIP2_5, Q9C0E4; [2]): below the threshold
pKd (Inadl_4, Q8NI35; [2]): below the threshold
pKd (LIN7B, Q9HAP6; [2]): below the threshold
pKd (LNX1_1, Q8TBB1; [2]): 3.77
pKd (LNX1_3, Q8TBB1; [2]): below the threshold
pKd (PARD3B_1, Q8TEW8; [2]): below the threshold
pKd (PARD3_3, Q8TEW0; [2]): below the threshold
pKd (PDZD7_3, Q9H5P4; [2]): below the threshold
pKd (PDZRN3_1, Q9UPQ7; [2]): below the threshold
pKd (RAPGEF6, Q8TEU7; [2]): below the threshold
pKd (SCRIB_2, Q14160; [2]): 4.67
pKd (SNTG2, Q9NY99; [2]): 4.28
pKd (TX1BP3, O14907; [2]): 4.49

B3: NHERF1, O14745 (peptide)
chain: SKKNELFSNL
pKd (APBA1_1, Q02410; [1]): below the threshold
pKd (APBA1_2, Q02410; [1]): 3.48
pKd (ARHGEF11, O15085; [1]): below the threshold
pKd (DLG3_2, Q92796; [1]): below the threshold
pKd (DVL3, Q92997; [1]): below the threshold
pKd (FRMPD3, Q5JV73; [1]): below the threshold
pKd (GRASP, Q7Z6J2; [1]): below the threshold
pKd (GRIP1_3, Q9Y3R0; [1]): below the threshold
pKd (GRIP1_5, Q9Y3R0; [1]): below the threshold
pKd (GRIP2_4, Q9C0E4; [1]): below the threshold
pKd (GRIP2_5, Q9C0E4; [1]): below the threshold
pKd (Inadl_4, Q8NI35; [1]): below the threshold
pKd (LIN7B, Q9HAP6; [1]): below the threshold
pKd (LNX1_1, Q8TBB1; [1]): below the threshold
pKd (LNX1_3, Q8TBB1; [1]): below the threshold
pKd (PARD3B_1, Q8TEW8; [1]): below the threshold
pKd (PARD3_3, Q8TEW0; [1]): below the threshold
pKd (PDZD7_3, Q9H5P4; [1]): below the threshold
pKd (PDZRN3_1, Q9UPQ7; [1]): below the threshold
pKd (RAPGEF6, Q8TEU7; [1]): below the threshold
pKd (SCRIB_2, Q14160; [1]): below the threshold
pKd (SNTG2, Q9NY99; [1]): below the threshold
pKd (TX1BP3, O14907; [1]): below the threshold
